The target in test [1] is FLAG-tagged influenza A virus M2 protein (influenza A virus (strain not stated)) (UniProt P05780). In words: co-IP.
For test [2], the target named is c-Myc-tagged cyclin D1 (UniProt P24385 1-295). In words: co-IP. To be noted: partners not purified.
c-Myc-tagged cyclin D1, sequence (P24385 whole entry): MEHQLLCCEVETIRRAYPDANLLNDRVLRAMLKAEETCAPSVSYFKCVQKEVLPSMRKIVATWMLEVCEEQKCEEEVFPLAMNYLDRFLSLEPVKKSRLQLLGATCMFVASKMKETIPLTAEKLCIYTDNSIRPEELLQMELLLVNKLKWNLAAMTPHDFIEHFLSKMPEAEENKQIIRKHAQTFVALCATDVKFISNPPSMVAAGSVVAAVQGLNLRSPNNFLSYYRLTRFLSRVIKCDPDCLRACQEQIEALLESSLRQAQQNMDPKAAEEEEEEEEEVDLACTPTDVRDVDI

On to “FLAG- and c-Myc-tagged human cyclin D3 (from UniProt P30281-1 1-292) (natural protein)”, for which, in test [1], the percent reduction of M1 co-precipitated with M2 was determined as 70%.

B1: Influenza A/WSN/33 virus M2 protein made in infected cells (natural protein)
chain: MSLLTEVETPIRNEWGCRCNDSSDPLVIAANIIGILHLILWILDRLFFKCIYRRFKYGLKRGPSTEGVPESMREEYRKEQQNAVDVDDGHFVNIELE
As to B1, the “M2 co-precipitated, relative to cyclin D3” value in test [2] was approximately 50%.

Source of the values: article PMC5377818 (The Journal of Biological Chemistry, 2017).
